Assay results taken from the supplement of paper PMC10065799, “High-throughput profiling of sequence recognition by tyrosine kinases and SH2 domains using bacterial peptide display” (eLife, 2023).
One block for each sequence: values may come before it.

Columns and labels:
Grb2 SH2 = Grb2 SH2 (UniProt P62993); test: SH2 binding enrichment of the phosphorylated peptide, bacterial display (enrichment ratio); higher = better substrate or ligand; peptides without Tyr show the background
SHP2-C SH2 = test: as above
c-Src SH2 = test: as above
c-Src = test: phosphorylation enrichment, bacterial display (enrichment ratio); higher = better substrate or ligand; peptides without Tyr show the background
FGFR3 = FGFR3 (UniProt P22607); test: as above
Fes = Fes (UniProt P07332); test: as above
Fes, sequence (P07332 whole entry, looked up): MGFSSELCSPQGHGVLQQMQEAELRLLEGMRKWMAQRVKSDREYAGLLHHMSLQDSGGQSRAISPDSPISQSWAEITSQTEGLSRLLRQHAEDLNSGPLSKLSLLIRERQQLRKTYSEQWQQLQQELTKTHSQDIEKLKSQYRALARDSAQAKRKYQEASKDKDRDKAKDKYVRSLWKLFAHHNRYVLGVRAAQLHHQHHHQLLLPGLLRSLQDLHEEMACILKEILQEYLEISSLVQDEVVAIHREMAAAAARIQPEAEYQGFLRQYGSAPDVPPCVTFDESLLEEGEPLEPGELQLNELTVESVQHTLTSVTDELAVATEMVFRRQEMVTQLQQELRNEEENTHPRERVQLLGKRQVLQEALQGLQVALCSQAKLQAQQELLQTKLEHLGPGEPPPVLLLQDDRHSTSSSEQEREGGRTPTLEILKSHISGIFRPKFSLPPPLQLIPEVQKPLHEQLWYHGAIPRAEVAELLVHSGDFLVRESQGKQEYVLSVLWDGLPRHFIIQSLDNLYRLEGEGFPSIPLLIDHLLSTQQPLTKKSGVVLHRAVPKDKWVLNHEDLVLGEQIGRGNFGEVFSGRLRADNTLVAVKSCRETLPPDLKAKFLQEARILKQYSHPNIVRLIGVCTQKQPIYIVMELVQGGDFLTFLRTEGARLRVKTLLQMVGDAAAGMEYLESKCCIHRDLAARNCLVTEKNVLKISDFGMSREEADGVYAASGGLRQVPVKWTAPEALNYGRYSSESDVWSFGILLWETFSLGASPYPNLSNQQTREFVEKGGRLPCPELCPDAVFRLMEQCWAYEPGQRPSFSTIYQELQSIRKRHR

AncSZ = test: as above
Fer (mouse) = test: as above
EPHB1 = EPHB1 (UniProt P54762); test: as above
EPHB1, sequence (P54762 whole entry, looked up): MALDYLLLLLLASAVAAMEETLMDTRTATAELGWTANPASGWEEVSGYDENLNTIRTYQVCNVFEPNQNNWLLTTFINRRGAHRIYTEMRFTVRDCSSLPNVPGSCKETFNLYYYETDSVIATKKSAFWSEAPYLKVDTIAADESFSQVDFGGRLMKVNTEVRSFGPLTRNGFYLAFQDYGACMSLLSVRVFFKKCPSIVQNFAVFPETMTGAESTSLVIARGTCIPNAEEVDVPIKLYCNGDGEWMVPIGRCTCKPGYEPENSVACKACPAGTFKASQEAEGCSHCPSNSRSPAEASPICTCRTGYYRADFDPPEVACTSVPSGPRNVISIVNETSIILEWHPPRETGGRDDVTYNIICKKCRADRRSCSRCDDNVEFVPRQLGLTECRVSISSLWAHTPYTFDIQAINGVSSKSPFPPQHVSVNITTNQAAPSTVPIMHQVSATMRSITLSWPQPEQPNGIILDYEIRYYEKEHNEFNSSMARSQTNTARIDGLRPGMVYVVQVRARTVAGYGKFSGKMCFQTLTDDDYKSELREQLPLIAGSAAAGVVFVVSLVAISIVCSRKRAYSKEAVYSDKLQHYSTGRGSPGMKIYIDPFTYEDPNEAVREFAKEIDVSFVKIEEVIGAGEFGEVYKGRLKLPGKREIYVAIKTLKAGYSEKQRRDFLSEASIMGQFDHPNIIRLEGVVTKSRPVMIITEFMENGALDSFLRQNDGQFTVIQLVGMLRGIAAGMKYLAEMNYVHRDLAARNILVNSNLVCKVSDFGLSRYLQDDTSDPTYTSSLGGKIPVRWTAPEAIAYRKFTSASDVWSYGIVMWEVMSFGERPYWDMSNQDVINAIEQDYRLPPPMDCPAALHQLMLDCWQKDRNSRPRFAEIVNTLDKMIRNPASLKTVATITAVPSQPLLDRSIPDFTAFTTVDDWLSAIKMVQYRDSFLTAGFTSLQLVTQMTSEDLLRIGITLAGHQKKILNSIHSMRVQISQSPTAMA

EPHB2 = EPHB2 (UniProt P29323); test: as above
EPHB2, sequence (P29323 whole entry, looked up): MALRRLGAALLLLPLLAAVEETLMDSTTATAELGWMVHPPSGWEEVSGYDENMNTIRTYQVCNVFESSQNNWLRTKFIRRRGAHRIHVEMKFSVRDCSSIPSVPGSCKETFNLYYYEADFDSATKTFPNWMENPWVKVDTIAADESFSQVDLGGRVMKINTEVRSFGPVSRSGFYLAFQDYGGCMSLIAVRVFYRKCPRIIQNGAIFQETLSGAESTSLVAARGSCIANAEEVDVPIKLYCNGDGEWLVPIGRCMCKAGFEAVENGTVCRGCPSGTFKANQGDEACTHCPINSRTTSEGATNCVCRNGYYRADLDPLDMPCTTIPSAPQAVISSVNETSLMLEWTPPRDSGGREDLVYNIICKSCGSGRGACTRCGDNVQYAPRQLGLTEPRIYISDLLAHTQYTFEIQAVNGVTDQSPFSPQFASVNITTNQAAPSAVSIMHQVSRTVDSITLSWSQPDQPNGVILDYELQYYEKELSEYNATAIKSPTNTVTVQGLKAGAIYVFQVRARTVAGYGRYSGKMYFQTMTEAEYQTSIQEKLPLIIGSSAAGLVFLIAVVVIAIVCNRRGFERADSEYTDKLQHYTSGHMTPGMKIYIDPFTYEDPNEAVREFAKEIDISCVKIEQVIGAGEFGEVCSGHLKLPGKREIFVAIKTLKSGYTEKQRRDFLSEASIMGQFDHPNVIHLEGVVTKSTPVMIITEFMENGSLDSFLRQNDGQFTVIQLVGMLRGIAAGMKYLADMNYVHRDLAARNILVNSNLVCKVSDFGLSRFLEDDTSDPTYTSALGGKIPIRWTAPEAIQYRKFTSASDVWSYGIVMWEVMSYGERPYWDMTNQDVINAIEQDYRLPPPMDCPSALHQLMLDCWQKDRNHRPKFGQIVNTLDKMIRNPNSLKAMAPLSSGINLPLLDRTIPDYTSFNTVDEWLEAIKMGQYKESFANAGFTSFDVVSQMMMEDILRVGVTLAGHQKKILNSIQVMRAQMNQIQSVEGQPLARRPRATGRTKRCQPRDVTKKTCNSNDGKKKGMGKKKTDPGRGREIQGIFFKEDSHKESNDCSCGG

Fyn = Fyn (UniProt P06241); test: as above
Fyn, sequence (P06241 whole entry, looked up): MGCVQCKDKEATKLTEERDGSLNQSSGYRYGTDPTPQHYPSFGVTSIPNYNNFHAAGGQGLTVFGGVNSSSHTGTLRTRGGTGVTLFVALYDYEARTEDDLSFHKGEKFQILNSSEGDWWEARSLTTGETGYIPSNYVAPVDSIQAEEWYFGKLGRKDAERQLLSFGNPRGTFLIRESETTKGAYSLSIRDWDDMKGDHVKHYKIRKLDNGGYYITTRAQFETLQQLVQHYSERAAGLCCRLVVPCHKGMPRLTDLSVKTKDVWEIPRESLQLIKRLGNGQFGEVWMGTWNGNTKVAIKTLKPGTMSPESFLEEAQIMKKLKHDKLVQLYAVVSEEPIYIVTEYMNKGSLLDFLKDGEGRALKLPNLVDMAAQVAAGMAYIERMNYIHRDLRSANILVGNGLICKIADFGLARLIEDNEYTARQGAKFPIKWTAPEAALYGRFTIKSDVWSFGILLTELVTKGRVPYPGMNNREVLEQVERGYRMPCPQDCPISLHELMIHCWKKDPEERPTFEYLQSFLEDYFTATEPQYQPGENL

Hck = Hck (UniProt P08631); test: as above
Hck, sequence (P08631 whole entry, looked up): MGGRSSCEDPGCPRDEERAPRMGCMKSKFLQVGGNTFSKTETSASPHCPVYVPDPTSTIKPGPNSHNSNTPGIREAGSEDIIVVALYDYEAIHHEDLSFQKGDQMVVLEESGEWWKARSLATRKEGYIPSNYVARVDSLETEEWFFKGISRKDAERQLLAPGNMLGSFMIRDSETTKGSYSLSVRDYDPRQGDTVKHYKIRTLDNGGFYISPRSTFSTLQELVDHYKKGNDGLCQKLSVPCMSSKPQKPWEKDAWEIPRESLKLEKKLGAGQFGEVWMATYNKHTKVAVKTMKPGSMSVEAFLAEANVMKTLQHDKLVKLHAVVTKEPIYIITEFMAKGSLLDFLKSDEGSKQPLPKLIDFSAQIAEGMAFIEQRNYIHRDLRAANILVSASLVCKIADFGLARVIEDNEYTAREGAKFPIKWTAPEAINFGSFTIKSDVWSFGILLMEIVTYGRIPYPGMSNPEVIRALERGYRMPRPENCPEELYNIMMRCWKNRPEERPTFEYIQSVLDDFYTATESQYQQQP

Jak2 = Jak2 (UniProt O60674); test: as above
Jak2, sequence (O60674 whole entry, looked up): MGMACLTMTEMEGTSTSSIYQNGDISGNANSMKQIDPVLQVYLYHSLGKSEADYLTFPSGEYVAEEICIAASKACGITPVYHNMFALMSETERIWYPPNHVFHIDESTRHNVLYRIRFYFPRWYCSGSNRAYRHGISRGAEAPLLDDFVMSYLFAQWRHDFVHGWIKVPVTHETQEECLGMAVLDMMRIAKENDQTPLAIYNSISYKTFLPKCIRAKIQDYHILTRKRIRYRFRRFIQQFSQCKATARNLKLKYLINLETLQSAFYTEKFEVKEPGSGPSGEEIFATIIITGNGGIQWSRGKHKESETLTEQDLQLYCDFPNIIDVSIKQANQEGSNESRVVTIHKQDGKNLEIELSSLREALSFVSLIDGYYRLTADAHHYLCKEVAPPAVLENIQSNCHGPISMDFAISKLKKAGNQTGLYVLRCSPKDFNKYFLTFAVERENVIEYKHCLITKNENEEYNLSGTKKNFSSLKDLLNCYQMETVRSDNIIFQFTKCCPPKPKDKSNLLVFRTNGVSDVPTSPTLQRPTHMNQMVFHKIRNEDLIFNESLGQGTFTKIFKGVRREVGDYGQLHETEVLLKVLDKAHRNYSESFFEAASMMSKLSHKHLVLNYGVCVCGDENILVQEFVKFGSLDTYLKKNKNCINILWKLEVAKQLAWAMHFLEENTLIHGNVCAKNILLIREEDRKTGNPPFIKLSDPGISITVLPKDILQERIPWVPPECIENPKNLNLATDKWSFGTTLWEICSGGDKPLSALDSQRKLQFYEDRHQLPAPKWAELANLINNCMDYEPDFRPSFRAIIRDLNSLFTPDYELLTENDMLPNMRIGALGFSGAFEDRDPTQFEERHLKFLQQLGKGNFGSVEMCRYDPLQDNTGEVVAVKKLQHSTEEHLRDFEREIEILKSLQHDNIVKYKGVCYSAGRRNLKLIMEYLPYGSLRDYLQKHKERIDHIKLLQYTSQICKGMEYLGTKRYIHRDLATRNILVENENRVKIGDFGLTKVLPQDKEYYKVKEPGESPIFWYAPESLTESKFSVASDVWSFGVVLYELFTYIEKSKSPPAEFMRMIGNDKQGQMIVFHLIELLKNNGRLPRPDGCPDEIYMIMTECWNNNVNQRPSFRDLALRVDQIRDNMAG

FGFR1 = FGFR1 (UniProt P11362); test: as above
MERTK = MERTK (UniProt Q12866); test: as above
c-Abl (mouse) = test: as above
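For SH2 binding enrichment of the phosphorylated peptide, bacterial display in this document: peptide library displayed on the E. coli surface as eCPX fusions, selected cells deep-sequenced, score is each peptide's frequency after selection divided by its frequency in the input.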
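For phosphorylation enrichment, bacterial display in this document: 11-residue human phosphosite peptides and single-mutation variants displayed on the E. coli surface, counted by deep sequencing, each peptide's frequency after selection divided by its frequency in the unselected input library; frequency after pTyr selection over input frequency; kinase dosed for 20-30% of maximal phosphorylation in three min.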

Sequence: GGDVIYKGFED [NFU1_Y194]
SH2 binding enrichment (Grb2 SH2): 0.822
SH2 binding enrichment (SHP2-C SH2): 0.625
SH2 binding enrichment (c-Src SH2): 0.427
phosphorylation enrichment (c-Src): 2.75
phosphorylation enrichment (FGFR3): 0.629
phosphorylation enrichment (Fes): 0.887
phosphorylation enrichment (AncSZ): 0.871
phosphorylation enrichment (Fer (mouse)): 0.395
phosphorylation enrichment (EPHB1): 0.425
phosphorylation enrichment (EPHB2): 0.491
phosphorylation enrichment (Fyn): 3.25
phosphorylation enrichment (Hck): 0.951
phosphorylation enrichment (Jak2): 0.924
phosphorylation enrichment (FGFR1): 0.499
phosphorylation enrichment (MERTK): 0.466
phosphorylation enrichment (c-Abl (mouse)): 0.663

Sequence: SQQTFYPVSNM [ABCD1_Y181_R182P_YF]
SH2 binding enrichment (Grb2 SH2): 0.881
SH2 binding enrichment (SHP2-C SH2): 0.644
SH2 binding enrichment (c-Src SH2): 0.466
phosphorylation enrichment (c-Src): 0.398
phosphorylation enrichment (FGFR3): 0.513
phosphorylation enrichment (Fes): 0.654
phosphorylation enrichment (AncSZ): 0.706
phosphorylation enrichment (Fer (mouse)): 0.318
phosphorylation enrichment (EPHB1): 0.387
phosphorylation enrichment (EPHB2): 0.49
phosphorylation enrichment (Fyn): 0.419
phosphorylation enrichment (Hck): 0.407
phosphorylation enrichment (Jak2): 0.598
phosphorylation enrichment (FGFR1): 0.507
phosphorylation enrichment (MERTK): 0.374
phosphorylation enrichment (c-Abl (mouse)): 0.57

Sequence: PGQRVYVVAES [SHH_Y316_R321S]
SH2 binding enrichment (Grb2 SH2): 0.756
SH2 binding enrichment (SHP2-C SH2): 0.892
SH2 binding enrichment (c-Src SH2): 0.55
phosphorylation enrichment (c-Src): 0.546
phosphorylation enrichment (FGFR3): 0.848
phosphorylation enrichment (Fes): 1.45
phosphorylation enrichment (AncSZ): 1.06
phosphorylation enrichment (Fer (mouse)): 0.728
phosphorylation enrichment (EPHB1): 0.695
phosphorylation enrichment (EPHB2): 0.507
phosphorylation enrichment (Fyn): 0.538
phosphorylation enrichment (Hck): 0.748
phosphorylation enrichment (Jak2): 1.07
phosphorylation enrichment (FGFR1): 0.494
phosphorylation enrichment (MERTK): 0.377
phosphorylation enrichment (c-Abl (mouse)): 0.896

Sequence: TWEKPYECVQC [ZNF24_Y335_G331W]
SH2 binding enrichment (Grb2 SH2): 1.08
SH2 binding enrichment (SHP2-C SH2): 0.731
SH2 binding enrichment (c-Src SH2): 4.54
phosphorylation enrichment (c-Src): 0.887
phosphorylation enrichment (FGFR3): 0.648
phosphorylation enrichment (Fes): 0.964
phosphorylation enrichment (AncSZ): 0.904
phosphorylation enrichment (Fer (mouse)): 4.82
phosphorylation enrichment (EPHB1): 0.521
phosphorylation enrichment (EPHB2): 0.601
phosphorylation enrichment (Fyn): 0.489
phosphorylation enrichment (Hck): 0.623
phosphorylation enrichment (Jak2): 0.84
phosphorylation enrichment (FGFR1): 0.516
phosphorylation enrichment (MERTK): 0.492
phosphorylation enrichment (c-Abl (mouse)): 0.534

Sequence: PRIKTYMRPSP [TDP1_Y497_H493R]
SH2 binding enrichment (Grb2 SH2): 1.04
SH2 binding enrichment (SHP2-C SH2): 0.948
SH2 binding enrichment (c-Src SH2): 0.842
phosphorylation enrichment (c-Src): 0.474
phosphorylation enrichment (FGFR3): 0.522
phosphorylation enrichment (Fes): 0.65
phosphorylation enrichment (AncSZ): 0.493
phosphorylation enrichment (Fer (mouse)): 0.378
phosphorylation enrichment (EPHB1): 0.317
phosphorylation enrichment (EPHB2): 0.465
phosphorylation enrichment (Fyn): 0.366
phosphorylation enrichment (Hck): 0.36
phosphorylation enrichment (Jak2): 0.49
phosphorylation enrichment (FGFR1): 0.451
phosphorylation enrichment (MERTK): 0.44
phosphorylation enrichment (c-Abl (mouse)): 0.425

Sequence: KNEKVYTRHGV [FLOT1_Y56_S52N]
SH2 binding enrichment (Grb2 SH2): 0.998
SH2 binding enrichment (SHP2-C SH2): 0.749
SH2 binding enrichment (c-Src SH2): 0.585
phosphorylation enrichment (c-Src): 0.357
phosphorylation enrichment (FGFR3): 0.356
phosphorylation enrichment (Fes): 0.487
phosphorylation enrichment (AncSZ): 0.514
phosphorylation enrichment (Fer (mouse)): 0.316
phosphorylation enrichment (EPHB1): 0.243
phosphorylation enrichment (EPHB2): 0.33
phosphorylation enrichment (Fyn): 0.355
phosphorylation enrichment (Hck): 0.344
phosphorylation enrichment (Jak2): 0.392
phosphorylation enrichment (FGFR1): 0.352
phosphorylation enrichment (MERTK): 0.375
phosphorylation enrichment (c-Abl (mouse)): 0.435

Sequence: KVGRVYLFLQP [ITGA2B_Y360_E355K]
SH2 binding enrichment (Grb2 SH2): 0.843
SH2 binding enrichment (SHP2-C SH2): 0.724
SH2 binding enrichment (c-Src SH2): 0.48
phosphorylation enrichment (c-Src): 0.362
phosphorylation enrichment (FGFR3): 0.768
phosphorylation enrichment (Fes): 1.2
phosphorylation enrichment (AncSZ): 1.02
phosphorylation enrichment (Fer (mouse)): 0.492
phosphorylation enrichment (EPHB1): 0.558
phosphorylation enrichment (EPHB2): 0.522
phosphorylation enrichment (Fyn): 0.375
phosphorylation enrichment (Hck): 0.462
phosphorylation enrichment (Jak2): 0.983
phosphorylation enrichment (FGFR1): 0.404
phosphorylation enrichment (MERTK): 0.391
phosphorylation enrichment (c-Abl (mouse)): 0.75

Now from value to sequence, other results behind:

SH2 binding enrichment (Grb2 SH2): 0.824
SH2 binding enrichment (SHP2-C SH2): 0.654
SH2 binding enrichment (c-Src SH2): 0.427
Sequence: KTSGNYLAVTG [WDR19_Y28]
phosphorylation enrichment (c-Src): 0.42
phosphorylation enrichment (FGFR3): 0.457
phosphorylation enrichment (Fes): 0.57
phosphorylation enrichment (AncSZ): 0.573
phosphorylation enrichment (Fer (mouse)): 0.404
phosphorylation enrichment (EPHB1): 0.974
phosphorylation enrichment (EPHB2): 0.517
phosphorylation enrichment (Fyn): 0.536
phosphorylation enrichment (Hck): 0.454
phosphorylation enrichment (Jak2): 0.449
phosphorylation enrichment (FGFR1): 0.5
phosphorylation enrichment (MERTK): 0.757
phosphorylation enrichment (c-Abl (mouse)): 0.445

SH2 binding enrichment (Grb2 SH2): 0.819
SH2 binding enrichment (SHP2-C SH2): 0.725
SH2 binding enrichment (c-Src SH2): 0.586
Sequence: NWGSPYKSNGC [ZNF347_Y261]
phosphorylation enrichment (c-Src): 0.52
phosphorylation enrichment (FGFR3): 0.546
phosphorylation enrichment (Fes): 1.09
phosphorylation enrichment (AncSZ): 0.894
phosphorylation enrichment (Fer (mouse)): 0.48
phosphorylation enrichment (EPHB1): 0.459
phosphorylation enrichment (EPHB2): 0.569
phosphorylation enrichment (Fyn): 0.373
phosphorylation enrichment (Hck): 0.52
phosphorylation enrichment (Jak2): 0.759
phosphorylation enrichment (FGFR1): 0.48
phosphorylation enrichment (MERTK): 0.41
phosphorylation enrichment (c-Abl (mouse)): 0.667

SH2 binding enrichment (Grb2 SH2): 0.76
SH2 binding enrichment (SHP2-C SH2): 0.576
SH2 binding enrichment (c-Src SH2): 0.517
Sequence: CVVVPYEPPEV [TP53_Y220_S215C]
phosphorylation enrichment (c-Src): 0.557
phosphorylation enrichment (FGFR3): 1.03
phosphorylation enrichment (Fes): 1.54
phosphorylation enrichment (AncSZ): 1.65
phosphorylation enrichment (Fer (mouse)): 0.854
phosphorylation enrichment (EPHB1): 0.864
phosphorylation enrichment (EPHB2): 0.641
phosphorylation enrichment (Fyn): 0.568
phosphorylation enrichment (Hck): 0.599
phosphorylation enrichment (Jak2): 1.38
phosphorylation enrichment (FGFR1): 0.574
phosphorylation enrichment (MERTK): 0.462
phosphorylation enrichment (c-Abl (mouse)): 1.01

SH2 binding enrichment (Grb2 SH2): 1.18
SH2 binding enrichment (SHP2-C SH2): 1.2
SH2 binding enrichment (c-Src SH2): 0.877
Sequence: SFPSYYTSHVQ [NEFL_Y443]
phosphorylation enrichment (c-Src): 0.737
phosphorylation enrichment (FGFR3): 1.76
phosphorylation enrichment (Fes): 0.914
phosphorylation enrichment (AncSZ): 0.88
phosphorylation enrichment (Fer (mouse)): 0.759
phosphorylation enrichment (EPHB1): 1.88
phosphorylation enrichment (EPHB2): 1.1
phosphorylation enrichment (Fyn): 0.59
phosphorylation enrichment (Hck): 1.1
phosphorylation enrichment (Jak2): 4.39
phosphorylation enrichment (FGFR1): 1.86
phosphorylation enrichment (MERTK): 5.38
phosphorylation enrichment (c-Abl (mouse)): 1.85

SH2 binding enrichment (Grb2 SH2): 0.924
SH2 binding enrichment (SHP2-C SH2): 0.963
SH2 binding enrichment (c-Src SH2): 5
Sequence: NQDRTYYESVR [SPEN_Y632]
phosphorylation enrichment (c-Src): 2
phosphorylation enrichment (FGFR3): 0.828
phosphorylation enrichment (Fes): 0.819
phosphorylation enrichment (AncSZ): 0.897
phosphorylation enrichment (Fer (mouse)): 0.993
phosphorylation enrichment (EPHB1): 0.569
phosphorylation enrichment (EPHB2): 0.661
phosphorylation enrichment (Fyn): 1.4
phosphorylation enrichment (Hck): 2.05
phosphorylation enrichment (Jak2): 0.762
phosphorylation enrichment (FGFR1): 1.02
phosphorylation enrichment (MERTK): 1.02
phosphorylation enrichment (c-Abl (mouse)): 0.787

SH2 binding enrichment (Grb2 SH2): 1.07
SH2 binding enrichment (SHP2-C SH2): 7.45
SH2 binding enrichment (c-Src SH2): 1.73
Sequence: KFDLMYAKLAF [TUBA1A_Y399_R402L]
phosphorylation enrichment (c-Src): 3.04
phosphorylation enrichment (FGFR3): 0.676
phosphorylation enrichment (Fes): 1.13
phosphorylation enrichment (AncSZ): 0.818
phosphorylation enrichment (Fer (mouse)): 0.632
phosphorylation enrichment (EPHB1): 0.726
phosphorylation enrichment (EPHB2): 0.619
phosphorylation enrichment (Fyn): 1.26
phosphorylation enrichment (Hck): 4.61
phosphorylation enrichment (Jak2): 0.811
phosphorylation enrichment (FGFR1): 0.49
phosphorylation enrichment (MERTK): 3.23
phosphorylation enrichment (c-Abl (mouse)): 0.716

SH2 binding enrichment (Grb2 SH2): 1.29
SH2 binding enrichment (SHP2-C SH2): 1.18
SH2 binding enrichment (c-Src SH2): 0.509
Sequence: WVYNHYRWIIW [BRCA2_Y2624]
phosphorylation enrichment (c-Src): 0.415
phosphorylation enrichment (FGFR3): 0.702
phosphorylation enrichment (Fes): 1.11
phosphorylation enrichment (AncSZ): 0.937
phosphorylation enrichment (Fer (mouse)): 0.431
phosphorylation enrichment (EPHB1): 0.521
phosphorylation enrichment (EPHB2): 0.597
phosphorylation enrichment (Fyn): 0.375
phosphorylation enrichment (Hck): 0.461
phosphorylation enrichment (Jak2): 1.14
phosphorylation enrichment (FGFR1): 0.499
phosphorylation enrichment (MERTK): 0.301
phosphorylation enrichment (c-Abl (mouse)): 0.841

SH2 binding enrichment (Grb2 SH2): 0.737
SH2 binding enrichment (SHP2-C SH2): 0.52
SH2 binding enrichment (c-Src SH2): 0.457
Sequence: SVTCMYSPALN [TP53_Y126_T125M]
phosphorylation enrichment (c-Src): 0.804
phosphorylation enrichment (FGFR3): 0.749
phosphorylation enrichment (Fes): 1.47
phosphorylation enrichment (AncSZ): 1.39
phosphorylation enrichment (Fer (mouse)): 0.667
phosphorylation enrichment (EPHB1): 0.738
phosphorylation enrichment (EPHB2): 0.632
phosphorylation enrichment (Fyn): 0.501
phosphorylation enrichment (Hck): 0.594
phosphorylation enrichment (Jak2): 1.36
phosphorylation enrichment (FGFR1): 0.481
phosphorylation enrichment (MERTK): 0.472
phosphorylation enrichment (c-Abl (mouse)): 0.97

SH2 binding enrichment (Grb2 SH2): 0.695
SH2 binding enrichment (SHP2-C SH2): 0.804
SH2 binding enrichment (c-Src SH2): 0.487
Sequence: LGSNTYPFLLT [SAG_Y120]
phosphorylation enrichment (c-Src): 0.543
phosphorylation enrichment (FGFR3): 1.4
phosphorylation enrichment (Fes): 1.22
phosphorylation enrichment (AncSZ): 1.26
phosphorylation enrichment (Fer (mouse)): 0.793
phosphorylation enrichment (EPHB1): 0.77
phosphorylation enrichment (EPHB2): 0.655
phosphorylation enrichment (Fyn): 0.505
phosphorylation enrichment (Hck): 0.54
phosphorylation enrichment (Jak2): 0.785
phosphorylation enrichment (FGFR1): 1.11
phosphorylation enrichment (MERTK): 0.589
phosphorylation enrichment (c-Abl (mouse)): 0.938
